Results reported in article PMC10397247.
One block for each binder: values may come before it.

Assays:
4H3926-bA = biological target: T1, 4H3926-bA; experiment: two-hybrid library CCNG1;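 note: natural log of median RNA to DNA barcode read ratio; higher means stronger binding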
T1 chain: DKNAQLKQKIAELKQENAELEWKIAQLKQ

4H4073-bA = biological target: T2, 4H4073-bA; experiment: two-hybrid library CCNG1;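 note: natural log of median RNA to DNA barcode read ratio; higher means stronger binding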
T2 chain: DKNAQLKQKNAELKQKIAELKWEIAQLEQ

4H797-bA = biological target: T3, 4H797-bA; experiment: two-hybrid library CCNG1;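 note: natural log of median RNA to DNA barcode read ratio; higher means stronger binding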
T3 chain: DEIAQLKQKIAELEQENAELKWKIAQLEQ

4H1831-bA = biological target: T4, 4H1831-bA; experiment: two-hybrid library CCNG1;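 note: natural log of median RNA to DNA barcode read ratio; higher means stronger binding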
T4 chain: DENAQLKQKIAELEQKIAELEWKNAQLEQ

4H2673-bA = biological target: T5, 4H2673-bA; experiment: two-hybrid library CCNG1;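 note: natural log of median RNA to DNA barcode read ratio; higher means stronger binding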
T5 chain: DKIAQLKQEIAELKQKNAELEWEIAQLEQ

4H754-bA = biological target: T6, 4H754-bA; experiment: two-hybrid library CCNG1;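 note: natural log of median RNA to DNA barcode read ratio; higher means stronger binding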
T6 chain: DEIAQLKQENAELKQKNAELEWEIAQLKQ

4H780-bA = biological target: T7, 4H780-bA; experiment: two-hybrid library CCNG1
T7 chain: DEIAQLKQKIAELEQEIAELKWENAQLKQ

4H855-bA = biological target: T8, 4H855-bA; experiment: two-hybrid library CCNG1
T8 chain: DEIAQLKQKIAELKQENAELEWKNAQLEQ

4H968-bA = biological target: T9, 4H968-bA; experiment: two-hybrid library CCNG1
T9 chain: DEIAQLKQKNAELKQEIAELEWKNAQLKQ

4H346-bA = biological target: T10, 4H346-bA; experiment: two-hybrid library CCNG1
T10 chain: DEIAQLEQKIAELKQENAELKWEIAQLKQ

4H2627-bA = biological target: T11, 4H2627-bA; experiment: two-hybrid library CCNG1
T11 chain: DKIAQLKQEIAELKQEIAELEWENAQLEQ

4H3112-bA = biological target: T12, 4H3112-bA; experiment: two-hybrid library CCNG1
T12 chain: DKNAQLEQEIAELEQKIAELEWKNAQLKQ

4H170-bA = biological target: T13, 4H170-bA; experiment: two-hybrid library CCNG1
T13 chain: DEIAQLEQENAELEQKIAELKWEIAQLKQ

4H457-bA = biological target: T14, 4H457-bA; experiment: two-hybrid library CCNG1
T14 chain: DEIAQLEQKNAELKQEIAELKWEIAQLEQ

4H918-bA = biological target: T15, 4H918-bA; experiment: two-hybrid library CCNG1
T15 chain: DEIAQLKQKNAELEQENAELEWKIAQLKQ

4H3427-bA = biological target: T16, 4H3427-bA; experiment: two-hybrid library CCNG1
T16 chain: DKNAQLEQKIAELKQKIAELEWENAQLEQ

4H683-bA = biological target: T17, 4H683-bA; experiment: two-hybrid library CCNG1
T17 chain: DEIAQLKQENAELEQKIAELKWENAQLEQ

4H2586-bA = biological target: T18, 4H2586-bA; experiment: two-hybrid library CCNG1
T18 chain: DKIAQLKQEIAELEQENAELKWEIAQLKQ

4H575-bA = biological target: T19, 4H575-bA; experiment: two-hybrid library CCNG1
T19 chain: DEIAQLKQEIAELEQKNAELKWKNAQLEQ

O3-bP = biological target: T20, O3-bP; experiment: two-hybrid library CCNG1
T20 chain: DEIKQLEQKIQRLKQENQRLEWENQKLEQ

4H2702-bA = biological target: T21, 4H2702-bA; experiment: two-hybrid library CCNG1
T21 chain: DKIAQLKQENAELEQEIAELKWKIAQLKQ

4H118-bA = biological target: T22, 4H118-bA; experiment: two-hybrid library CCNG1
T22 chain: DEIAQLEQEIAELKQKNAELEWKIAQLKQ

4H953-bA = biological target: T23, 4H953-bA; experiment: two-hybrid library CCNG1
T23 chain: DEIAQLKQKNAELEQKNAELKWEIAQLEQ

4H3010-bA = biological target: T24, 4H3010-bA; experiment: two-hybrid library CCNG1
T24 chain: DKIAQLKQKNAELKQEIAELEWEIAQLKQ

APC2375-AA = biological target: T25, APC2375-AA; experiment: two-hybrid library CCmax; conditions: mean of both orientations
T25 chain: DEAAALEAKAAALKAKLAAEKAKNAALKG

APC1987-AA = biological target: T26, APC1987-AA; experiment: two-hybrid library CCmax
T26 chain: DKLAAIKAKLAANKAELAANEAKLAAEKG

APC9141-AA = biological target: T27, APC9141-AA; experiment: two-hybrid library CCmax; conditions: mean of both orientations
T27 chain: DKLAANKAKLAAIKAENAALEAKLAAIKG

APC5009-AA = biological target: T28, APC5009-AA; experiment: two-hybrid library CCmax; conditions: mean of both orientations
T28 chain: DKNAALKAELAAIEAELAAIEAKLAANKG

APC5531-AA = biological target: T29, APC5531-AA; experiment: two-hybrid library CCmax; conditions: mean of both orientations
T29 chain: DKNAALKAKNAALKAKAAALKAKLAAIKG

APC2474-AA = biological target: T30, APC2474-AA; experiment: two-hybrid library CCmax; conditions: mean of both orientations
T30 chain: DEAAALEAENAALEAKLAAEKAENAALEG

APC2543-AA = biological target: T31, APC2543-AA; experiment: two-hybrid library CCmax; conditions: mean of both orientations
T31 chain: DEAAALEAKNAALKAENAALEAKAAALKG

APC9806-AA = biological target: T32, APC9806-AA; experiment: two-hybrid library CCmax; conditions: mean of both orientations
T32 chain: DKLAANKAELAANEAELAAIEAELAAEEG

APC4100-AA = biological target: T33, APC4100-AA; experiment: two-hybrid library CCmax; conditions: mean of both orientations
T33 chain: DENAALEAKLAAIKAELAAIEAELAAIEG

APC9182-AA = biological target: T34, APC9182-AA; experiment: two-hybrid library CCmax; conditions: mean of both orientations
T34 chain: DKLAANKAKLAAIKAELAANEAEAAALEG

APC2724-AA = biological target: T35, APC2724-AA; experiment: two-hybrid library CCmax; conditions: mean of both orientations
T35 chain: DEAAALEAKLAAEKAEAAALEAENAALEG

APC3265-AA = biological target: T36, APC3265-AA; experiment: two-hybrid library CCmax; conditions: mean of both orientations
T36 chain: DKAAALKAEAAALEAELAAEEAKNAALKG

APC222-AA = biological target: T37, APC222-AA; experiment: two-hybrid library CCmax; conditions: mean of both orientations
T37 chain: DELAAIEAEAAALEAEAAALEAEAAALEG

APC3323-AA = biological target: T38, APC3323-AA; experiment: two-hybrid library CCmax; conditions: mean of both orientations
T38 chain: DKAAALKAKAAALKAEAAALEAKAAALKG

APC2811-AA = biological target: T39, APC2811-AA; experiment: two-hybrid library CCmax; conditions: mean of both orientations
T39 chain: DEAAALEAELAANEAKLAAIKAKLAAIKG

APC2981-AA = biological target: T40, APC2981-AA; experiment: two-hybrid library CCmax; conditions: mean of both orientations
T40 chain: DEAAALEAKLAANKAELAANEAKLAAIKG

APC8401-AA = biological target: T41, APC8401-AA; experiment: two-hybrid library CCmax; conditions: mean of both orientations
T41 chain: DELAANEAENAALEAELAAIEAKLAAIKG

APC2556-AA = biological target: T42, APC2556-AA; experiment: two-hybrid library CCmax; conditions: mean of both orientations
T42 chain: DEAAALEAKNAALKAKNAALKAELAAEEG

APC3354-AA = biological target: T43, APC3354-AA; experiment: two-hybrid library CCmax; conditions: mean of both orientations
T43 chain: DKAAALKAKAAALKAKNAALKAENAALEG

APC7524-AA = biological target: T44, APC7524-AA; experiment: two-hybrid library CCmax; conditions: mean of both orientations
T44 chain: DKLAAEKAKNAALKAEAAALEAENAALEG

APC3881-AA = biological target: T45, APC3881-AA; experiment: two-hybrid library CCmax; conditions: mean of both orientations
T45 chain: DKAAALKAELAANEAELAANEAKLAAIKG

APC6088-AA = biological target: T46, APC6088-AA; experiment: two-hybrid library CCmax; conditions: mean of both orientations
T46 chain: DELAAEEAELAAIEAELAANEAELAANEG

APC542-AA = biological target: T47, APC542-AA; experiment: two-hybrid library CCmax; conditions: mean of both orientations
T47 chain: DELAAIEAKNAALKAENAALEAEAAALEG

APC8516-AA = biological target: T48, APC8516-AA; experiment: two-hybrid library CCmax; conditions: mean of both orientations
T48 chain: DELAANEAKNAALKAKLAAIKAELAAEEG

APC2257-AA = biological target: T49, APC2257-AA; experiment: two-hybrid library CCmax; conditions: mean of both orientations
T49 chain: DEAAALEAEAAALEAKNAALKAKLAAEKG

APC4336-AA = biological target: T50, APC4336-AA; experiment: two-hybrid library CCmax; conditions: mean of both orientations
T50 chain: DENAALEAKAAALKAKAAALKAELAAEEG

APC9291-AA = biological target: T51, APC9291-AA; experiment: two-hybrid library CCmax; conditions: mean of both orientations
T51 chain: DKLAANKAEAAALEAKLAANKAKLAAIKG

P9SHb = biological target: T52, P9SHb; experiment: two-hybrid library CCNG1
T52 chain: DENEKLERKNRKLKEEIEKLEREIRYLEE

P5SHb = biological target: T53, P5SHb; experiment: two-hybrid library CCNG1
T53 chain: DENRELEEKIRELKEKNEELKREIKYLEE

P2SHb = biological target: T54, P2SHb; experiment: two-hybrid library CCNG1
T54 chain: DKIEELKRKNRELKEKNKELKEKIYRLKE

P8SHb = biological target: T55, P8SHb; experiment: two-hybrid library CCNG1
T55 chain: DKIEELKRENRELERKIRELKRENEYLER

P3SHb = biological target: T56, P3SHb; experiment: two-hybrid library CCNG1
T56 chain: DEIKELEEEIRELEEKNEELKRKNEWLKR

P1SHb = biological target: T57, P1SHb; experiment: two-hybrid library CCNG1
T57 chain: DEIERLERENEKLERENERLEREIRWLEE

P6SHb = biological target: T58, P6SHb; experiment: two-hybrid library CCNG1
T58 chain: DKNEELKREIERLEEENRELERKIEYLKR

P7SHb = biological target: T59, P7SHb; experiment: two-hybrid library CCNG1
T59 chain: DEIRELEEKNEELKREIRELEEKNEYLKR

P4SHb = biological target: T60, P4SHb; experiment: two-hybrid library CCNG1
T60 chain: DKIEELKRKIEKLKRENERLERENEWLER

interaction score (4H3926-bA): 1.96
interaction score (4H4073-bA): -0.156
interaction score (4H797-bA): -1.22
interaction score (4H1831-bA): -0.644
interaction score (4H2673-bA): 1.32
interaction score (4H754-bA): -1.04
interaction score (4H780-bA): 0.087
interaction score (4H855-bA): 0.403
interaction score (4H968-bA): 0.0453
interaction score (4H346-bA): -0.612
interaction score (4H2627-bA): 0.852
interaction score (4H3112-bA): 0.131
interaction score (4H170-bA): -0.0431
interaction score (4H457-bA): -0.384
interaction score (4H918-bA): -0.49
interaction score (4H3427-bA): 0.236
interaction score (4H683-bA): -0.721
interaction score (4H2586-bA): 0.381
interaction score (4H575-bA): 0.369
interaction score (O3-bP): -1.86
interaction score (4H2702-bA): 0.439
interaction score (4H118-bA): 1.64
interaction score (4H953-bA): -0.791
interaction score (4H3010-bA): 2.66
Binder: DEIAQLEQEIAELKQKNAELEWKIAQLKQ [4H118-bA]

interaction score (APC2375-AA): -1.68
interaction score (APC1987-AA): -2.07
interaction score (APC9141-AA): -1.68
interaction score (APC5009-AA): -1.2
interaction score (APC5531-AA): -1.83
interaction score (APC2474-AA): -1.87
interaction score (APC2543-AA): -2.01
interaction score (APC9806-AA): -1.87
interaction score (APC4100-AA): -1.33
interaction score (APC9182-AA): -1.95
interaction score (APC2724-AA): -1.7
interaction score (APC3265-AA): -1.69
interaction score (APC222-AA): -1.81
interaction score (APC3323-AA): -2.07
interaction score (APC2811-AA): -1.92
interaction score (APC2981-AA): -1.82
interaction score (APC8401-AA): -1.6
interaction score (APC2556-AA): -1.78
interaction score (APC3354-AA): -1.64
interaction score (APC7524-AA): -1.75
interaction score (APC3881-AA): -1.66
interaction score (APC6088-AA): -1.6
interaction score (APC542-AA): -1.67
interaction score (APC8516-AA): -2.25
interaction score (APC2257-AA): -1.35
interaction score (APC4336-AA): -1.72
interaction score (APC9291-AA): -1.88
Binder: DKLAAIKAKLAANKAELAANEAKLAAEKG [APC1987-AA]

interaction score (P9SHb): -0.505
interaction score (P5SHb): -0.59
interaction score (P2SHb): 1.75
interaction score (P8SHb): -0.756
interaction score (P3SHb): -1.76
interaction score (P1SHb): -1.02
interaction score (P6SHb): -0.147
interaction score (P7SHb): -0.298
interaction score (P4SHb): -0.498
Binder: DEIERLERENEKLERENERLEREIRWLEE [P1SHb]
